What was measured:
[1] = biological target: specific IgE on basophils from the blood of allergic patient; experiment: cell-based or functional assay
[2] = biological target: IgE antibodies of the individual allergic patient serum II/12; experiment: EAST inhibition, individual serum II/12
[3] = biological target: IgE antibodies of the allergic patient serum pool We 6/97; experiment: EAST inhibition, serum pool We 6/97
[4] = biological target: IgE antibodies of the individual allergic patient serum II/3; experiment: EAST inhibition, individual serum II/3
[5] = biological target: IgE antibodies of the allergic patient serum pool Bor 18/100 (20 donors); experiment: EAST inhibition, serum pool Bor 18/100
[6] = biological target: IgE antibodies of the individual allergic patient serum II/17; experiment: EAST inhibition, individual serum II/17

B1: rPhl p 5b deletion mutant DM1 (deletion K50-P132, D49L) (protein)
chain: ADAGYAPATPAAAGAAAGKATTEEQKLIEDINVGFKAAVAAAASVPAALAGELQIIDKIDAAFKVAATAAATAPADDKFTVFEAAFNKAIKESTGGAYDTYKCIPSLEAAVKQAYAATVAAAPQVKYAVFEAALTKAITAMSEVQKVSQPATGAATVAAGAATTAAGAASGAATVAAGGYKV
[1]
  concentration required to bring about a 30% histamine release from basophils, against wild type rPh1 p 5b: 20 fold higher
[2]
  allergenic potency (Prel) at 25% inhibition (relative to native Phl p 5b): 3.4e-05
  allergenic potency (Prel) at 50% inhibition (relative to native Phl p 5b): 1e-10
  inhibition value (inhibitor concentration at 25% inhibition): 1.5e-05 mol/L
[3]
  IC50: 17000 nM
  allergenic potency (Prel) at 25% inhibition (relative to native Phl p 5b): 0.022
  allergenic potency (Prel) at 50% inhibition (relative to native Phl p 5b): 0.0004
  inhibition value (inhibitor concentration at 25% inhibition): 2.3e-08 mol/L
[4]
  IC50: 17 nM
  allergenic potency (Prel) at 25% inhibition (relative to native Phl p 5b): 0.042
  allergenic potency (Prel) at 50% inhibition (relative to native Phl p 5b): 0.0035
  inhibition value (inhibitor concentration at 25% inhibition): 1.2e-08 mol/L
[5]
  IC50: 28 nM
  allergenic potency (Prel) at 25% inhibition (relative to native Phl p 5b): 0.039
  allergenic potency (Prel) at 50% inhibition (relative to native Phl p 5b): 0.0015
  inhibition value (inhibitor concentration at 25% inhibition): 8.6e-09 mol/L
[6]
  IC50: 2 nM
  allergenic potency (Prel) at 25% inhibition (relative to native Phl p 5b): 0.033
  allergenic potency (Prel) at 50% inhibition (relative to native Phl p 5b): 0.001
  inhibition value (inhibitor concentration at 25% inhibition): 6.5e-09 mol/L
